Measured values taken from article PMC7793301, “Assembly of infectious enteroviruses depends on multiple, conserved genomic RNA-coat protein contacts” (PLoS Pathogens, 2020).

T1: EV-E capsid protein VP1 (enterovirus-E (EV-E), UniProt P12915 560-840)
T1 construct: VP1, cut product of the enterovirus-E (formerly bovine enterovirus) polyprotein; genome NC_001859; numbers count on: the mature VP1; The N-terminal arm is not fully built in the model; source: EV-E propagated in BHK cells; virions purified (sucrose cushion, sucrose gradient)
T1 sequence: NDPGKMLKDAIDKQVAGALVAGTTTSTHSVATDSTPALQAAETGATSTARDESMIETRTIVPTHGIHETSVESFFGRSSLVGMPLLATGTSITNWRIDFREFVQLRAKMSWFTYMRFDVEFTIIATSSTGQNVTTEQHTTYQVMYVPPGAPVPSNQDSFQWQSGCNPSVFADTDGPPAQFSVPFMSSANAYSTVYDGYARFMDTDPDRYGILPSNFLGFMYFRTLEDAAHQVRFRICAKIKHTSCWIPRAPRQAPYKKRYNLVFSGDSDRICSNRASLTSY

B1: EV-E capsid protein VP2 (natural protein)
chain: SPSAEACGYSDRVAQLTLGNSTITTQEAANICVAYGCWPAKLSDTDATSVDKPTEPGVSADAFYTLRSKPWQADSKGWYWKLPDALNNTGMFGQNAQFHYIYRGGWAVHVQCNATKFHQGTLLVLAIPEHQIATQEQPAFDRTMPGSEGGTFQEPFWLEDGTSLGNSLIYPHQWINLRTNNSATLILPYVNAIPMDSAIRHSNWTLAIIPVAPLKYAAETTPLVPITVTIAPMETEYNGLRRAIASNQ
notes: VP2, cut product of VP0 of the enterovirus-E polyprotein; genome NC_001859; modelled from residue Y9; numbers count on: the mature VP2; source: EV-E propagated in BHK cells; virions purified (sucrose cushion, sucrose gradient)

Tests used:
EV-E capsid protein VP1 = target: T1, EV-E capsid protein VP1; test: cryo-EM structure; purified EV-E virions in PBS; single particle analysis with icosahedral symmetry, ~2.2 Å; also symmetry expansion and focused classification; settings: both partners purified
EV-E capsid protein VP2 = target: B1; test: as above; settings: both partners purified

| Binder | binding result (EV-E capsid protein VP1) | binding result (EV-E capsid protein VP2) |
| --- | --- | --- |
| B1 | binds | – |
| EV-E capsid protein VP3 (natural protein, VP3, cut product of the enterovirus-E polyprotein; genome NC_001859; numbers count on: the mature VP3; source: EV-E propagated in BHK cells; virions purified (sucrose cushion, sucrose gradient)) GLPTKPGPGSYQFMTTDEDCSPCILPDFQPTLEIFIPGKVNNLLEIAQVESILEANNREGVEGVERYVIPVSVQDALDAQIYALRLELGGSGPLSSSLLGTLAKHYTQWSGSVEITCMFTGTFMTTGKVLLAYTPPGGDMPRNREEAMLGTHVVWDFGLQSSITLVIPWISASHFRGVSNDDVLNYQYYAAGHVTIWYQTNMVIPPGFPNTAGIIMMIAAQPNFSFRIQKDREDMTQTAILQ | binds | binds |
